In the supplement of paper PMC6757056:
± gives the standard deviation of the averaged measurements.

B1: library; a variant is named by its letters at N, in order (parent)
chain: GCUGUCACCGGUGCUUGGUACGUUAUAUUCAGCCGGUCUGAUGAGUCUNNNNNNAGACGAAACAGC

Tests used:
(6R,S)-folinic acid [1] = variants of: B1; test: normalized RNA/DNA level without ligand (relative to sTRSVctl = 100) (log10 (% of sTRSVctl)); HEK293T overexpressing SLC46A1; higher = less ribozyme self-cleavage, higher mRNA level; conditions: without (6R,S)-folinic acid; ligand present: no
Outline: (§1)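 For each 6-well well, 4 µg of library plasmid encoding mCherry-linked ribozyme switches, or eGFP-linked ones in some ligand experiments, was transfected into HEK293T. Any ligand was added 1 h before transfection, and RNA was extracted with EDTA 72 h after it, then reverse-transcribed, amplified, barcoded and sequenced. RNA level was obtained by dividing RNA reads by DNA reads, normalizing to a spiked-in non-cleaving sequence or to the top sequences, then scaling and log-transforming. The top set was 25 sequences, scaling was ×100 with log10, and ≥100 DNA reads were required.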

(6R,S)-folinic acid [2] = variants of: B1; test: normalized RNA/DNA level with ligand (relative to sTRSVctl = 100) (log10 (% of sTRSVctl)); HEK293T overexpressing SLC46A1; ligand concentration (+) RNA-Seq: 6 mM; higher = less ribozyme self-cleavage, higher mRNA level; conditions: with (6R,S)-folinic acid; ligand present: yes
Outline: as §1

| Variant | normalized RNA/DNA level without ligand (log10) ((6R,S)-folinic acid [1]) | normalized RNA/DNA level with ligand (log10) ((6R,S)-folinic acid [2]) |
| --- | --- | --- |
| GGGCUG | 2.044 ± 0.0043 | 2.03 ± 0.046 |
| GGGCUA | 2.048 ± 0.0023 | 2.05 ± 0.033 |
| GGGCUU | 2.143 ± 0.0064 | 2.1 ± 0.027 |
| GGGCUC | 2.1006 ± 0.0021 | 2.1 ± 0.021 |
| UGCUCC | 2.062 ± 0.0087 | 2.03 ± 0.081 |
| UGCUCA | 1.982 ± 0.006 | 1.988 ± 0.013 |
| UGGGCA | 1.962 ± 0.0051 | 2.01 ± 0.032 |
| UGGGCU | 2.06 ± 0.024 | 2.04 ± 0.025 |
| UGGAGC | 1.996 ± 0.0034 | 2.06 ± 0.036 |
| CGCUCC | 2.082 ± 0.015 | 2.057 ± 0.017 |
| CGCUCU | 2.1 ± 0.033 | 2.06 ± 0.033 |
| CGCUCA | 2.05 ± 0.022 | 2.038 ± 0.008 |
| CGCUCG | 2.047 ± 0.0074 | 2.018 ± 0.015 |
| UGCUUA | 2.003 ± 0.0057 | 2.03 ± 0.026 |
| UGCUUC | 2.04 ± 0.027 | 2.04 ± 0.043 |
| UGCUUU | 2.016 ± 0.0073 | 2.032 ± 0.0036 |
| AGGGUG | 1.952 ± 0.0024 | 2.04 ± 0.028 |
| AGGGUA | 1.968 ± 0.019 | 2.02 ± 0.0085 |
| AGGGUU | 2.021 ± 0.0045 | 2.01 ± 0.035 |
| AGGGUC | 2.051 ± 0.0057 | 2.03 ± 0.063 |
| AGGAGU | 1.934 ± 0.0037 | 2.033 ± 0.014 |
| AGGAGC | 1.99 ± 0.016 | 2.01 ± 0.04 |
| CGCGGG | 1.938 ± 0.017 | 2.039 ± 0.01 |

| Variant | normalized RNA/DNA level without ligand (log10) ((6R,S)-folinic acid [1]) | normalized RNA/DNA level with ligand (log10) ((6R,S)-folinic acid [2]) |
| --- | --- | --- |
| CGCGGU | 2.003 ± 0.019 | 2.035 ± 0.015 |
| CGGACC | 2.072 ± 0.0055 | 2.0545 ± 0.0011 |
| CGGACG | 2.017 ± 0.012 | 2.02 ± 0.0049 |
| CGGACU | 2.043 ± 0.0042 | 2.01 ± 0.023 |
| CGGACA | 2.037 ± 0.0086 | 2.02 ± 0.03 |
| GGGGCG | 2.073 ± 0.016 | 2.06 ± 0.045 |
| GGGGCU | 2.079 ± 0.017 | 2.055 ± 0.0086 |
| GGGGCA | 2.054 ± 0.0064 | 2.02 ± 0.025 |
| GGGGGC | 1.94 ± 0.038 | 2.03 ± 0.022 |
| GGGGGA | 2.057 ± 0.02 | 2.05 ± 0.043 |
| GGGGGG | 2.045 ± 0.019 | 2.04 ± 0.061 |
| GGGGGU | 2.037 ± 0.0098 | 2.05 ± 0.052 |
| AGGCUU | 2.03 ± 0.027 | 2.04 ± 0.041 |
| AGGCUG | 2.0598 ± 0.0012 | 2.04 ± 0.0063 |
| GGGGUC | 2.023 ± 0.0058 | 2.04 ± 0.048 |
| GGGGUA | 1.988 ± 0.0044 | 1.99 ± 0.028 |
| GGGGUG | 1.997 ± 0.011 | 2.061 ± 0.019 |
| GGGGUU | 2.014 ± 0.0056 | 2.02 ± 0.034 |
| AGGCCA | 2.0454 ± 0.0016 | 2.04 ± 0.04 |
| AGGCCG | 2.039 ± 0.017 | 2.02 ± 0.039 |
| AGGCCC | 2.068 ± 0.0036 | 2.03 ± 0.056 |
| AGGCCU | 2.07 ± 0.031 | 2.06 ± 0.0088 |
| UGCUGU | 2.015 ± 0.0082 | 1.995 ± 0.0073 |

| Variant | normalized RNA/DNA level without ligand (log10) ((6R,S)-folinic acid [1]) | normalized RNA/DNA level with ligand (log10) ((6R,S)-folinic acid [2]) |
| --- | --- | --- |
| UGCUGC | 2.038 ± 0.018 | 2.01 ± 0.049 |
| UGGGGG | 1.8 ± 0.017 | 2.008 ± 0.018 |
| UGGGGC | 2.024 ± 0.01 | 2.02 ± 0.023 |
| UGGGGA | 1.836 ± 0.0073 | 1.99 ± 0.036 |
| UGGGGU | 1.94 ± 0.026 | 2.0251 ± 0.00068 |
| GGCUAG | 2.063 ± 0.0075 | 2.042 ± 0.004 |
| GGCUAU | 2.051 ± 0.0061 | 2.01 ± 0.027 |
| GGCUAC | 2.02 ± 0.042 | 2.05 ± 0.021 |
| GGCUAA | 2.036 ± 0.011 | 2.05 ± 0.033 |
| AGGAAG | 1.89 ± 0.0078 | 2.01 ± 0.043 |
| AGGAAA | 1.942 ± 0.0081 | 1.99 ± 0.04 |
| AGCUUA | 1.996 ± 0.0022 | 2.01 ± 0.062 |
| AGCUUC | 2.0594 ± 0.00028 | 2.045 ± 0.011 |
| AGCUUU | 2.014 ± 0.0092 | 2.016 ± 0.018 |
| UGGCCG | 2.01 ± 0.036 | 2.03 ± 0.046 |
| UGGCCC | 2.059 ± 0.0063 | 2.06 ± 0.068 |
| UGGCCU | 2.043 ± 0.014 | 2.03 ± 0.024 |
| CGGCAA | 2.086 ± 0.0085 | 2.05 ± 0.023 |
| CGGCAC | 2.102 ± 0.011 | 2.052 ± 0.0022 |
| CGGCAG | 1.997 ± 0.0087 | 2.01 ± 0.052 |
| GGCGUA | 2.068 ± 0.004 | 2.04 ± 0.03 |
| GGCGUC | 2.058 ± 0.012 | 2.01 ± 0.047 |
| GGCGUU | 2.08 ± 0.027 | 2.06 ± 0.034 |

| Variant | normalized RNA/DNA level without ligand (log10) ((6R,S)-folinic acid [1]) | normalized RNA/DNA level with ligand (log10) ((6R,S)-folinic acid [2]) |
| --- | --- | --- |
| GGCGUG | 2.071 ± 0.0047 | 2.06 ± 0.033 |
| CGGUCA | 2.005 ± 0.014 | 1.98 ± 0.064 |
| CGGGGG | 1.91 ± 0.034 | 2.05 ± 0.064 |
| CGGGGA | 2.104 ± 0.0034 | 2.11 ± 0.065 |
| CGGGGU | 2.039 ± 0.015 | 2.07 ± 0.024 |
| CGGGGC | 2.03 ± 0.023 | 2.003 ± 0.014 |
| GGGCGC | 2.011 ± 0.016 | 2.04 ± 0.048 |
| GGGCGU | 2.103 ± 0.0047 | 2.08 ± 0.05 |
| GGGCGA | 2.089 ± 0.0043 | 2.1 ± 0.018 |
| CGCUUG | 2.066 ± 0.018 | 2.041 ± 0.015 |
| CGCUUA | 2.002 ± 0.011 | 2.014 ± 0.019 |
| CGCUUC | 2.1105 ± 0.0021 | 2.09 ± 0.066 |
| CGGAAA | 1.9343 ± 0.0017 | 1.98 ± 0.045 |
| CGGAAC | 1.984 ± 0.0056 | 2 ± 0.034 |
| CGGAAG | 1.94 ± 0.021 | 1.98 ± 0.028 |
| UGGGUU | 1.9881 ± 0.0019 | 2.018 ± 0.016 |
| UGGGUC | 2.11 ± 0.022 | 2.06 ± 0.034 |
| UGGGUA | 1.892 ± 0.0053 | 1.98 ± 0.053 |
| GGGAAU | 2.008 ± 0.0024 | 2.019 ± 0.02 |
| GGGAAA | 1.99 ± 0.0091 | 2.02 ± 0.036 |
| GGGAAC | 1.997 ± 0.015 | 2.02 ± 0.032 |
| UGGGAA | 1.8778 ± 0.0006 | 1.98 ± 0.028 |
| UGGGAC | 1.99 ± 0.03 | 2.015 ± 0.0073 |

| Variant | normalized RNA/DNA level without ligand (log10) ((6R,S)-folinic acid [1]) | normalized RNA/DNA level with ligand (log10) ((6R,S)-folinic acid [2]) |
| --- | --- | --- |
| GGCUUC | 2.085 ± 0.0026 | 2.08 ± 0.067 |
| GGCUUU | 2.079 ± 0.0033 | 2.041 ± 0.013 |
| GGCUUA | 2.0768 ± 0.0012 | 2.03 ± 0.03 |
| UGGAUC | 2.039 ± 0.01 | 2.01 ± 0.032 |
| UGGAUA | 1.93 ± 0.022 | 1.99 ± 0.031 |
| CGGCGC | 2.0778 ± 0.0006 | 2.05 ± 0.029 |
| CGGCGA | 2.103 ± 0.016 | 2.09 ± 0.026 |
| CGGCGU | 2.05 ± 0.027 | 2.02 ± 0.046 |
| CGGCGG | 1.968 ± 0.0051 | 2.04 ± 0.041 |
| AGGGCC | 2.07 ± 0.023 | 2.06 ± 0.06 |
| AGGGCA | 2.033 ± 0.02 | 2.03 ± 0.042 |
| AGGGCG | 1.962 ± 0.008 | 2.02 ± 0.027 |
| AGGGCU | 2.022 ± 0.0078 | 2.05 ± 0.024 |
| UGGUCA | 1.9757 ± 0.0013 | 2.04 ± 0.062 |
| GGGCAG | 2.03 ± 0.0034 | 2.05 ± 0.057 |
| GGGCAA | 2.046 ± 0.013 | 2.05 ± 0.027 |
| GGGCAC | 2.003 ± 0.0062 | 2.02 ± 0.041 |
| AGCUAG | 1.935 ± 0.002 | 2.01 ± 0.025 |
| AGCUAA | 2 ± 0.033 | 1.999 ± 0.0025 |
| AGCUAC | 2.029 ± 0.012 | 2.01 ± 0.063 |
| AGCUAU | 1.987 ± 0.014 | 2.009 ± 0.018 |
| CGGUAU | 1.976 ± 0.0076 | 2.003 ± 0.013 |
| CGGUAG | 1.93 ± 0.025 | 1.963 ± 0.018 |
